Reference: patent publication US20240059758A1 (CORAT THERAPEUTICS, published 2024)

Columns and labels:
[1] = target: T1, receptor binding domain (RBD) of the S1-subunit of SARS-CoV-2 glycoprotein S (SARS-CoV-2, UniProt P0DTC2 319-541); test: RBD-binding quality as compared to STE90-C11, wt
[2] = target: T1, receptor binding domain (RBD) of the …; test: ACE2:RBD competition assay, 5 µg/ml IgG

Binder | binding result [1] | ACE2:RBD inhibition with 5 µg/ml IgG [%] [2]
hybrid antibody: VL YU536-D04 (SEQ ID No. 362) with VH STE90-C11 (SEQ ID No. 1305) (antibody, V domains shown) VH: QVQLVESGGGLVQPGGSLRLSCAASGLTVSSNYMSWVRQAPGKGLEWVSVIYSGGSTYYADSVKGRFTISRDDSKNTLYLQMNSLRAEDTAVYYCARDVADAFDIWGQGTMVTVSS VL: DIQLTQSPSSLSASVGDRVTITCRASQGISSYLAWYQQKPGKAPKLLIYAASTLQSGVPSRFSGSGSGTDFTLTISSLQPEDFATYYCQQLNSYPITFGQGTKLEIK | binds | 
hybrid antibody: VL YU536-D04 (SEQ ID No. 362) with VH YU537-H11 (SEQ ID No. 404) (antibody, V domains shown) VH: EVQLLESGGGLIQPGGSLRLSCAASGLTVSSNYMSWVRQAPGKGLEWVSVIYSGGSTYYADSVKGRFTISRDNSKNALYLQMNSLRAEDTAVYYCARGESGSPYGMDVWGQGTLVTVSS VL: DIQLTQSPSSLSASVGDRVTITCRASQGISSYLAWYQQKPGKAPKLLIYAASTLQSGVPSRFSGSGSGTDFTLTISSLQPEDFATYYCQQLNSYPITFGQGTKLEIK | binds | 
YU505-B06 (antibody, V domains shown) VH: not shown VL: SYVLTQPPSVSVAPGKTARITCGGNNIGSKSVHWYQQKPGQAPVLVIYYDSDRPSGIPERFSGSNSGNTATLTISRVEAGDEADYYCQVWDSSSDHVVFGGGTKLTVL |  | 58.5%
YU505-D02 (antibody, V domains shown) VH: QVQLVQSGAEVKKPGSSVKVSCKASGGTFSSYAISWVRQAPGQGLEWMGGIIPIFGTANYAQKFQGRVTITADKSTSTAYMELSSLRSEDTAVYYCARETSSGWSFLDYWGQGTLVTVSS VL: SYVLTQPPSVSVAPGKTARITCGGNNIGSKSVHWYQQKPGQAPVLVIYYDSDRPSGIPERFSGSNSGNTATLTISRVEAGDEADYYCQVWDSSSDHVVFGGGTKVTVL |  | 49.4%
YU505-F05 (antibody, V domains shown) VH: EVQLLESGGGVVQPGRSLRLSCAASGFTFSSYGMHWVRQAPGKGLEWVAVMSYDGSKKYYADSVKGRFTISRDNSKNTLYLQMNSLRAEDTAVYYCVTQGMDVWGQGTLVTVSS VL: QSVLTQPPSVSVAPGKTARITCGGNNIGSKSVHWYQQKPGQAPVLVIYYISDRPSGIPERFSGSNSGNTATLTISRVEAGDEAAYYCHVWDSSSDHVVFGGGTKLTVL |  | 26.7%
hybrid antibody: VL STE90-C11 (SEQ ID No. 1309) with VH YU536-D04 (SEQ ID No. 364) (antibody, V domains shown) VH: QVQLVQSGGGLVQPGGSLRLSCAASGLTVSSNYMSWVRQAPGKGLEWVSVIYSGGSTYYADSVKGRFIISRDNSKNTLYLQMNSLRAEDTAVYYCARDLVVMGLDVWGKGTLVTVSS VL: DIVMTQSPSFLSASVGDRVTITCRASQGISSYLAWYQQKPGKAPKLLIYAASTLQSGVPSRFSGSGSGTEFTLTISSLQPEDFATYYCQQLNSYPPFTFGPGTKVDIK | binds | 
hybrid antibody: VL STE90-C11 (SEQ ID No. 1309) with VH YU537-H11 (SEQ ID No. 404) (antibody, V domains shown) VH: EVQLLESGGGLIQPGGSLRLSCAASGLTVSSNYMSWVRQAPGKGLEWVSVIYSGGSTYYADSVKGRFTISRDNSKNALYLQMNSLRAEDTAVYYCARGESGSPYGMDVWGQGTLVTVSS VL: DIVMTQSPSFLSASVGDRVTITCRASQGISSYLAWYQQKPGKAPKLLIYAASTLQSGVPSRFSGSGSGTEFTLTISSLQPEDFATYYCQQLNSYPPFTFGPGTKVDIK | binds | 
hybrid antibody: VL YU537-H11 (SEQ ID No. 402) with VH YU536-D04 (SEQ ID No. 364) (antibody, V domains shown) VH: QVQLVQSGGGLVQPGGSLRLSCAASGLTVSSNYMSWVRQAPGKGLEWVSVIYSGGSTYYADSVKGRFIISRDNSKNTLYLQMNSLRAEDTAVYYCARDLVVMGLDVWGKGTLVTVSS VL: QSVLTQPPSVSAAPGQKVTISCSGSSSNIGNNYVSWYQQLPGTAPKLLIYDTNKRPSGIPDRFSGSKSGTSATLGITGLQTGDEADYYCATWDSSLSVGVFGGGTKLTVL | binds | 
YU505-A05 (antibody, V domains shown) VH: QVQLVQSGAEVKKPGSSVKVSCKASGGTFSSYAISWVRQAPGQGLEWMGGIIPIFGTANYAQKFQGRVTITADESTSTAYMELSSLRSEDTAVYYCARSDSGYSGYGYFDYWGQGTLVTVSS VL: QSALTQPASVSGSPGQSISISCTGTSSDVGRYNYVSWYQQHPGKAPKLMIYDVTNRPSGVSSRFSGSKSGNAASLTISGLQAEDEAEYYCTSYTSSNTLVIFGGGTKVTVL |  | 52.7%
YU519-A09 (antibody, V domains shown) VH: not shown VL: SYVLTQPPSVSVAPRQTARITCGGNNIGSKNVHWYQQKPGQAPVLVVYDDNVRPSGIPERFSGSNSGNTATLTISRVEAGDEADYYCQVWLNSSDDVLFGGGTKVTVL |  | 35.6%
YU505-A01 (antibody, V domains shown) VH: QVQLVQSGAEVKKPGASVKVSCKASGYTFTSYYMHWVRQAPGQGLEWMGIINPSGGSTSYAQKFQGRVTMTRDTSTSTVYMELSSLRSEDTAVYYCARDRHYYDSSGSSQATFLFDYWGQGTLVTVSS VL: QSVLTQPPSVSGAPGQRVTISCTGSSSNIGAGYDVHWYQQLPGTAPKLLIYGNSNRPSGVPDRFSGSKSGTSASLAITGLQAEDEADYYCQSYDSSLNVFGTGTKLTVL |  | 102%
YU505-F03 (antibody, V domains shown) VH: EVQLLESGAEVKKPGASVKVSCKASGYTFTGYYMHWVRQAPGQGLEWMGQINPNSGGTNYAQKFQGRVTMTRDTSISTAYMELSRLRSDDTAVYYCARGEGFDYWGQGTLVTVSS VL: SYVLTQPPSASGTPGQRVTISCSGSSSNIGSNYVYWYQQLPGTAPKLLIYRNNQRPSGVPDRFSGSKSGTSASLAISGLRSEGEADYYCAAWDDSLSGVVFGGGTKVTVL |  | 42.2%
YU505-E01 (antibody, V domains shown) VH: QVQLVQSGAEVKKPGSSVKVSCKASGGTFSSYSIVWVRQAPGQGLEWMGGIIPIFGTTNYAQKFQGRVTITADESTSTAFMELSNLKSEDTAVYFCARSLGATRDYWGQGTLVTVSS VL: SYVLTQPPSVSEAPRQRVTISCSGSSSNIGNNAVNWYQQLPGKAPKLLIYYDDLLPSGVSDRFSGSKSGTSASLAISGLQSEDEADYYCAAWDDSLNGPVFGGGTKVTVL |  | 24%
YU505-E04 (antibody, V domains shown) VH: QVQLVQSGAEVKKPGSSVKVSCKASGGTFSSYAISWVRQAPGQGLEWMGGIIPIFGTANYAQKFQGRVTITADESTSTAYMELSSLRSEDTAVYYCARGRGYSYGHDYWGQGTLVTVSS VL: SYELTQPPSVSEAPRQRVTISCSGSSSNIGNNAVNWYQQFPGKAPKLLIYYDDLLPSGVSDRFSGSKSGTSASLAISGLQSEDEADYYCAAWDDSLNGWVFGGGTKLTVL |  | 28%
YU505-A02 (antibody, V domains shown) VH: QVQLVESGAEVKKPGSSVKVSCKASGGTFSSYAISWVRQAPGQGLEWMGGIIPIFGTANYAQKFQGRVTITADESTSTAYMELSSLRSEDTAVYYCARQIWAYDSSGYPVPAEYFQHWGQGTLVTVSS VL: QSVLTQPPSVSGAPGQRVTISCTGSSSNIGAGYDVHWYQQLPGTAPKLLIYGNSNRPSGVPDRFSGSKSGTSASLAITGLQAEDEADYYCQSYDSSLSGVVFGGGTKLTVL |  | 43.8%
YU505-E02 (antibody, V domains shown) VH: QVQLVQSGAEVKKPGSSVKVSCKASGGTFSSYTISWVRQAPGQGLEWMGRIIPILGIANYAQKFQGRVTITADKSTSTAYMELSSLRSEDTAVYYCARDMVSVGAAGPYYFDYWGQGTLVTVSS VL: QSVLTQPPSVSEAPRQRVTISCTGSSSNIGAGYDVHWYQQLPGTAPKLLIYGNSNRPSGVPDRFSGSKSVTSASLAITGLQAEDEADYYCQSYDSSLSGSVFGGGTKLTVL |  | 58.8%
